Legend:
Test in all cases: ITC
Gal8_(C-CRD) H328A = Gal8_(C-CRD) H328A (human, UniProt O00214-2 228-359, H328A)
Gal8_(C-CRD) V244A = Gal8_(C-CRD) V244A (human, UniProt O00214-2 228-359, V244A)
Gal8_(C-CRD) I312V = Gal8_(C-CRD) I312V (human, UniProt O00214-2 228-359, I312V)
Gal8_(C-CRD) I312L = Gal8_(C-CRD) I312L (human, UniProt O00214-2 228-359, I312L)
Gal8_(C-CRD) K246A = Gal8_(C-CRD) K246A (human, UniProt O00214-2 228-359, K246A)
Sequence of Gal8_(C-CRD) K246A (O00214 186-317 K204A): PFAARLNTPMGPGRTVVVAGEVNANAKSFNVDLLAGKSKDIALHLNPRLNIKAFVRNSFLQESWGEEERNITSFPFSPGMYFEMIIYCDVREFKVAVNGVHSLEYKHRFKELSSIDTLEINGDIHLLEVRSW

Sequence of Gal8_(C-CRD) H328A (O00214 186-317 H286A): as the sequence (O00214 186-317 K204A) above, with A19K, H101A counted along it
Sequence of Gal8_(C-CRD) V244A (O00214 186-317 V202A): as the sequence (O00214 186-317 K204A) above, with V17A, A19K counted along it
Sequence of Gal8_(C-CRD) I312V (O00214 186-317 I270V): as the sequence (O00214 186-317 K204A) above, with A19K, I85V counted along it
Sequence of Gal8_(C-CRD) I312L (O00214 186-317 I270L): as the sequence (O00214 186-317 K204A) above, with A19K, I85L counted along it

Binder: ARQNPGLAYGNPYS [NDP52_(368-381) peptide]
- fold reduction of affinity against wild-type Gal8_(C-CRD) (Gal8_(C-CRD) H328A): 8 fold
- binding result (Gal8_(C-CRD) V244A): binds
- binding result (Gal8_(C-CRD) I312V): binds
- binding result (Gal8_(C-CRD) I312L): binds
- binding result (Gal8_(C-CRD) K246A): binds

— paper PMC3713453 (Science signaling, 2013)
